B1: CMTr1 full-length, purified from insect cells (enzyme, human, UniProt Q8N1G2 1-835, looked up)
chain: MKRRTDPECTAPIKKQKKRVAELALSLSSTSDDEPPSSVSHGAKASTTSLSGSDSETEGKQHSSDSFDDAFKADSLVEGTSSRYSMYNSVSQKLMAKMGFREGEGLGKYSQGRKDIVEASSQKGRRGLGLTLRGFDQELNVDWRDEPEPSACEQVSWFPECTTEIPDTQEMSDWMVVGKRKMIIEDETEFCGEELLHSVLQCKSVFDVLDGEEMRRARTRANPYEMIRGVFFLNRAAMKMANMDFVFDRMFTNPRDSYGKPLVKDREAELLYFADVCAGPGGFSEYVLWRKKWHAKGFGMTLKGPNDFKLEDFYSASSELFEPYYGEGGIDGDGDITRPENISAFRNFVLDNTDRKGVHFLMADGGFSVEGQENLQEILSKQLLLCQFLMALSIVRTGGHFICKTFDLFTPFSVGLVYLLYCCFERVCLFKPITSRPANSERYVVCKGLKVGIDDVRDYLFAVNIKLNQLRNTDSDVNLVVPLEVIKGDHEFTDYMIRSNESHCSLQIKALAKIHAFVQDTTLSEPRQAEIRKECLRLWGIPDQARVAPSSSDPKSKFFELIQGTEIDIFSYKPTLLTSKTLEKIRPVFDYRCMVSGSEQKFLIGLGKSQIYTWDGRQSDRWIKLDLKTELPRDTLLSVEIVHELKGEGKAQRKISAIHILDVLVLNGTDVREQHFNQRIQLAEKFVKAVSKPSRPDMNPIRVKEVYRLEEMEKIFVRLEMKIIKGSSGTPKLSYTGRDDRHFVPMGLYIVRTVNEPWTMGFSKSFKKKFFYNKKTKDSTFDLPADSIAPFHICYYGRLFWEWGDGIRVHDSQKPQDQDKLSKEDVLSFIQMHRA
B2: Recombinant DHX15 with His-tag (enzyme, human, UniProt O43143 1-795, looked up)
chain: MSKRHRLDLGEDYPSGKKRAGTDGKDRDRDRDREDRSKDRDRERDRGDREREREKEKEKELRASTNAMLISAGLPPLKASHSAHSTHSAHSTHSTHSAHSTHAGHAGHTSLPQCINPFTNLPHTPRYYDILKKRLQLPVWEYKDRFTDILVRHQSFVLVGETGSGKTTQIPQWCVEYMRSLPGPKRGVACTQPRRVAAMSVAQRVADEMDVMLGQEVGYSIRFEDCSSAKTILKYMTDGMLLREAMNDPLLERYGVIILDEAHERTLATDILMGVLKEVVRQRSDLKVIVMSATLDAGKFQIYFDNCPLLTIPGRTHPVEIFYTPEPERDYLEAAIRTVIQIHMCEEEEGDLLLFLTGQEEIDEACKRIKREVDDLGPEVGDIKIIPLYSTLPPQQQQRIFEPPPPKKQNGAIGRKVVVSTNIAETSLTIDGVVFVIDPGFAKQKVYNPRIRVESLLVTAISKASAQQRAGRAGRTRPGKCFRLYTEKAYKTEMQDNTYPEILRSNLGSVVLQLKKLGIDDLVHFDFMDPPAPETLMRALELLNYLAALNDDGDLTELGSMMAEFPLDPQLAKMVIASCDYNCSNEVLSITAMLSVPQCFVRPTEAKKAADEAKMRFAHIDGDHLTLLNVYHAFKQNHESVQWCYDNFINYRSLMSADNVRQQLSRIMDRFNLPRRSTDFTSRDYYINIRKALVTGYFMQVAHLERTGHYLTVKDNQVVQLHPSTVLDHKPEWVLYNEFVLTTKNYIRTCTDIKPEWLVKIAPQYYDMSNFPQCEAKRQLDRIIAKLQSKEYSQY
notes: ATP-dependent RNA helicase DHX15, human, from the full-length cDNA, cloned into pET28; The cloning paragraph says C-terminal His-tag; also called His-DHX15; DHX15 helicase; not shown: His-tag, C-terminal, kept

Columns and labels:
[1] = target: B2; assay: cell-based or functional assay
[2] = target: B1; assay: pull-down; purified His-DHX15 and CMTr1 mixed in BDHX buffer (20 mM Tris-HCl pH 8, 70 mM KCl, 3 mM MgCl2, 5 mM DTT, 100 µM ATP), on ice for 10 min; complexes captured on nickel-charged agarose beads; conditions: both partners purified

CMTr1 methyltransferase activity towards RNA92 and RNA68 substrates with equimolar DHX15, in comparison with CMTr1 alone [1] [fold] | binding result [2] | Binder
> 3 |  | B1
 | binds | B2
